Assay: soluble fraction after stress (log2 fold change); higher = more stays soluble; pooled small domains, quantitative proteomics
Details: stress: 75 degC
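Note: 20 min heating vs room temperature control held 20 min.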

Sequence	soluble fraction (log2)
HMYMKTITEQFGERLKKIRTQKSLSQEQLSYLADIDRSYISDVERGARNISLENIYKLASALNIPPYLVLL	-0.341
HMYMLYQQLADSLRDKIYEGTYTFGDKIPSERTLAATFGISHLTVRKALAILEEEGLLDRRQGNGTFVRV	-1.09
HMYNIDSFMTKNYPTMERFTLSDVQKKYKTTFGLFVKQDELASMIEKTGRFNITSSKNVKYVNR	-1.88
HMYNPAYDAEIKVILELARHGYWEEARERADELLKAAPDDTGVKRIQTWVRQQEQRMREQAIEDSIRA	-0.288
HMYPEETVNKILDVSMQLFLEKGYEHTSIQDIVNHLGGLSKGAIYHHFKSKEDILDGVMNKLYQNN	-1.58
HMYPGQILEIYLDEIKRLYLNGLSSADIFAEIKEGSIPSVKKAIRSMKDGSAPVKITEAEESTRIAPS	-0.543
HMYPTPAAANRHFLDKWGHQEAYLGKVLNSRSRASEILNGKRPLSLSDLRTLRDNLGIPVDLLL	-0.648
HMYQKERDKEISEIETFLKKITNANGTRAYSDESIADMSYVELLNLYEGITSKLTEEEIENI	0.0659
HMYQPLYEQIKRMLTQSLIDGEWKAGEMIPSEMELAARFKVSQGTVRKAIDELVSENILMRRQGKGTFVH	-0.962
HMYSDDNKSILNLIDNLFNKENIKIDINAKKLLSNYLGVDRLVTKGEIEKAILFAGTKKHLSIEDISAFLS	-0.104
HMYSFPHQLLKLRTEKQLSQAELATRLFVSRQAVSKWENGDAEPSIDKLILLAKVFNVSLDRLILGT	-4.31
HMYSIDNPPDWLKNLPKGAIRIGVEVFNQVLSKADDEDRARMAAWSAIKAKYEKADDGQWQPKAA	0.0816
HMYSNDEIVNYLKNYIFDNFNLNELSDEELEEKIAELVQQQFAGQLLSLDEKVKLVNQVYSSIR	-0.0578
HMYSRQRDLILKALRENVVHPTADFIYTVLKEKEPNLSLATVYRNLNLLANEGIIRKIEGLDGVAHFDH	-1.85
HMYSVVGKKGIVIEDINYSTGTGQIKSEGEVWSAKTNEQINIPKGTEIEIESIDGVKVIVKPL	0.109
HMYTDGVPALTDLKKESKPGRRQYVGVEDIPKVLGGLGITILSTSKGLMSGHQAKKKNIGGELIASV	0.102
HMYTEIDDVKDLLSKIPSVNKLTTADRGMVQAARNAYDALDEDQKLYITIADVEKFNAAVEWMEEH	-0.186
HMYTVRDGDTVFGILNRFGVSLDELLSLNPELSNGLKAGMVLKIK	-0.542
HMYVADVVGMGIKDALYILENQGLRVVFTGKGVVKNQSIAVGEKIIKGEKIVLML	-1.88
HMYVQDPVDRLVLESALRLLREQEREIIFLHLVAGLKHREIAGLLHLPLSTVLSGYRRALTKMKSYLEE	-0.0135
HMYVTGETIRHLRTQRRMTQEQLAETLGVTGKAVSKWETGRGFPDMSLLEPLARALRISVPELLSGE	-1.07
HMYYNQGILKSGASVYGEPGITSSHRLEIPSGSFVDIVQEKDEWVYYEKNHVNHGWVLRENIYIPSL	0.149
HMYYQEDHDIILEETEDVTDPYLITLRGYIFLNNLQWVAARQAFLSADERFRHRHYSALIAPIMQTIDNAA	0.359
HMYYSERILTILEERGISPYRVSKETGISQSVFSNWKRKPTSRITAANLERLADYLGLPVEVLTG	-3.48
